The source of these data is publication PMC8809517, “Cofactor-independent RNA editing by a synthetic S-type PPR protein”.

Test in all cases: high-throughput RNA pulldown from lysate on Ni-NTA beads; HRP: 50 mM Tris pH 8, 150 mM NaCl, 1 mM beta-mercaptoethanol, 50 ug/ml BSA, 3 ug/ml yeast RNA, 0.5% heparin; ITC and FP: Tris pH 8, 200 mM KCl, 5% glycerol; MST: 50 mM Tris pH 8, 200 mM NaCl, 1 mM DTT, BSA, heparin, 0.05% Tween 20
Details in all cases: tags: N-terminal His-eGFP

Series [1] addresses T1, GFP-9S library array, motif 4 ND N98V;D124K (synthetic construct, N98V;D124K).
T1 chain: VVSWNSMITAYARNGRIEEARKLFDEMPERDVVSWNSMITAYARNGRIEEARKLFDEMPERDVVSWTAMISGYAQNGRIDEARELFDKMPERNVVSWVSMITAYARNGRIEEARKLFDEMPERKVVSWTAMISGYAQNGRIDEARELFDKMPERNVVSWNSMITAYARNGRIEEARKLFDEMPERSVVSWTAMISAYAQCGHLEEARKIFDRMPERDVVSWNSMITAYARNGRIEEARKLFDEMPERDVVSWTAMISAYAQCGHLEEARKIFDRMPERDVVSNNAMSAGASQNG

Series [2] deals with T2, GFP-9S library array, motif 4 ND N98C;D124K (synthetic construct, N98C;D124K).
T2 chain: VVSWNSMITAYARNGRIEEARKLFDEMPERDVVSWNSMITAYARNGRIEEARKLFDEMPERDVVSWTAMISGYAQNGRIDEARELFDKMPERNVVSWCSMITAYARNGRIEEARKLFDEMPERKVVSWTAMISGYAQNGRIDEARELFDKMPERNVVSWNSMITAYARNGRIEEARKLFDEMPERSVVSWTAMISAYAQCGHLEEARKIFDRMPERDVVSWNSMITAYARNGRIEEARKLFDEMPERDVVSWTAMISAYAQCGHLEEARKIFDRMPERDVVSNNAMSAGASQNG

Series [3] concerns the target T3, GFP-9S library array, motif 4 ND N98A;D124W (synthetic construct, N98A;D124W).
T3 chain: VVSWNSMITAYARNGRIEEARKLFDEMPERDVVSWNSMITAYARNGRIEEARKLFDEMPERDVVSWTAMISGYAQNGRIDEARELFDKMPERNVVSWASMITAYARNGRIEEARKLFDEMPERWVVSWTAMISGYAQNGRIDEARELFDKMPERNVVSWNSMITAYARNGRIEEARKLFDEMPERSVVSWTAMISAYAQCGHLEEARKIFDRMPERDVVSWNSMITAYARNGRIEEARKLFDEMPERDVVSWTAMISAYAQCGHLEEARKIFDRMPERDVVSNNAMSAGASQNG

For series [4], the target named is T4, GFP-9S library array, motif 4 ND N98H;D124N (synthetic construct, N98H;D124N).
T4 chain: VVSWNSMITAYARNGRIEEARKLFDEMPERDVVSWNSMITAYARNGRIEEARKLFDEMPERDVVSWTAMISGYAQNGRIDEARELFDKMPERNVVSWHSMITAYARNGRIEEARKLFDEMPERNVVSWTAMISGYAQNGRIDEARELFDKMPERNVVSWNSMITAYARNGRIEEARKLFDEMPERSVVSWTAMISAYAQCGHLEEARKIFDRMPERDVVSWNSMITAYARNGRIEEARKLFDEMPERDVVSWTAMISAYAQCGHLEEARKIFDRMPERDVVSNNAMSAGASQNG

For series [5], the target named is T5, GFP-9S library array, motif 4 ND N98M (synthetic construct, N98M).
T5 chain: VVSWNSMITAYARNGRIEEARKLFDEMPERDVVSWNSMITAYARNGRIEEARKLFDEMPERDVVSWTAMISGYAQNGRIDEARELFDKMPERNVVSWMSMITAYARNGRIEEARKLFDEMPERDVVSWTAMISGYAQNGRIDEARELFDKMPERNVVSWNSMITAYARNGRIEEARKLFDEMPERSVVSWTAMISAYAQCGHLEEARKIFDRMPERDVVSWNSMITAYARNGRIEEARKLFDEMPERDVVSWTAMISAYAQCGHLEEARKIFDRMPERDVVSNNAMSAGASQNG

For the molecule AUUACACGUGA (ssRNA) [Cy5-rpoA], the Kd (commonly the free concentration of one partner at which half of the binding sites on the other are occupied at equilibrium, for simple one-to-one binding) in series [1] (label: 5' Cy5) came out at 97.1 nM; in series [2] (label: 5' Cy5), 96.2 nM; in series [3] (label: 5' Cy5) it was 129 nM; in series [4] (label: 5' Cy5) it was 36.1 nM; in series [5] (label: 5' Cy5), 143 nM.
Turning to AUUAGACGUGA (ssRNA) [Cy5-rpoA-G], the Kd in series [1] (label: 5' Cy5) was 91.4 nM; in series [2] (label: 5' Cy5), 91.1 nM; in series [3] (label: 5' Cy5) it was 104 nM; in series [4] (label: 5' Cy5) it was 149 nM; in series [5] (label: 5' Cy5), 43.1 nM.
Take AUUAUACGUGA (ssRNA) [IR-rpoA-U]: the Kd turned out to be 128 nM in series [1] (label: 5' IRDye 800CW); 139 nM in series [2] (label: 5' IRDye 800CW); 149 nM in series [3] (label: 5' IRDye 800CW); 30.8 nM in series [4] (label: 5' IRDye 800CW); 129 nM in series [5] (label: 5' IRDye 800CW).
On to AUUAAACGUGA (ssRNA) [IR-rpoA-A], for which the equilibrium dissociation constant (Kd) was 146 nM in series [1] (label: 5' IRDye 800CW); 66.3 nM in series [2] (label: 5' IRDye 800CW); 138 nM in series [3] (label: 5' IRDye 800CW); 189 nM in series [4] (label: 5' IRDye 800CW); 296 nM in series [5] (label: 5' IRDye 800CW).
